Experimental data: publication PMC2646141

B1: wild type APOBEC3G prey [human] / wild type APOBEC3G bait [human] (parent)
chain 1: MKPHFRNTVERMYRDTFSYNFYNRPILSRRNTVWLCYEVKTKGPSRPPLDAKIFRGQVYSELKYHPEMRFFHWFSKWRKLHRDQEYEVTWYISWSPCTKCTRDMATFLAEDPKVTLTIFVARLYYFWDPDYQEALRSLCQKRDGPRATMKIMNYDEFQHCWSKFVYSQRELFEPWNNLPKYYILLHIMLGEILRHSMDPPTFTFNFNNEPWVRGRHETYLCYEVERMHNDTWVLLNQRRGFLCNQAPHKHGFLEGRHAELCFLDVIPFWKLDLDQDYRVTCFTSWSPCFSCAQEMAKFISKNKHVSLCIFTARIYDDQGRCQEGLRTLAEAGAKISIMTYSEFKHCWDTFVDHQGCPFQPWDGLDEHSQDLSGRLRAILQNQEN
chain 2: B1 chain 1

Variants of: B1
Test: yeast two-hybrid (β-galactosidase activity)
Conditions: with wild type APOBEC3G (A3G) bait [human]; parent: 0.5; read off a plot

Variant	response [OD540]
chain 1 W127Y	0.031
chain 1 W127A	0.038
chain 1 Y124F	0.05
chain 1 Y124A	0.062

Other lines, results leading:

response [OD540]	Variant
0.59	chain 1 Y315A
0.34	chain 1 Y315F
0.5	chain 1 Y315L
0.042	chain 1 Y124L
